Data as given in article PMC12858348, “Structural basis underlying the autoinhibition of the formin FHOD1 and its phosphorylation-dependent activation” (The Journal of Biological Chemistry, 2025).

B1: His-tagged FHOD1-N3 (1–360) [human] / GST-fused FHOD1–DAD (1081–1145) [human] (parent complex)
chain 1: MAGGEDRGDGEPVSVVTVRVQYLEDTDPFACANFPEPRRAPTCSLDGALPLGAQIPAVHRLLGAPLKLEDCALQVSPSGYYLDTELSLEEQREMLEGFYEEISKGRKPTLILRTQLSVRVNAILEKLYSSSGPELRRSLFSLKQIFQEDKDLVPEFVHSEGLSCLIRVGAAADHNYQSYILRALGQLMLFVDGMLGVVAHSDTIQWLYTLCASLSRLVVKTALKLLLVFVEYSENNAPLFIRAVNSVASTTGAPPWANLVSILEEKNGADPELLVYTVTLINKTLAALPDQDSFYDVTDALEQQGMEALVQRHLGTAGTDVDLRTQLVLYENALKLEDGDIEEAPGAGGRRERRKPSSEE
chain 2: MPTVGPSTASPEEPPGSSLPSDTSDEIMDLLVQSVTKSSPRALAARERKRSRGNRKSLRRTLKSG

Variants of: B1
Assay: GST pull-down, SDS-PAGE, CBB staining, band quantification; parent: 100; read off a plot

percent of parent [%]	Variant
~97	chain 2 MPTVGPSTASPEEPPGSSLPSDTSDEIADLLVQSVTKSSPRALAARERKRSRGNRKSLRRTLKSG [chain 2 M28A]
~95	chain 2 MPTVGPSTASPEEPPGSSLPSDTSDEIMDLLAQSVTKSSPRALAARERKRSRGNRKSLRRTLKSG [chain 2 V32A]
~96	chain 2 MPTVGPSTASPEEPPGSSLPSDTSDEIMDLLVQSATKSSPRALAARERKRSRGNRKSLRRTLKSG [chain 2 V35A]
~97	chain 2 MPTVGPSTASPEEPPGSSLPSDTSDEIMDLAVQSVTKSSPRALAARERKRSRGNRKSLRRTLKSG [chain 2 L31A]

Variants of: B1
Assay: as above
Remark: another data set of the same source

percent of parent [%]	Variant
~52	chain 1 MAGGEDRGDGEPVSVVTVRVQYLEDTDPFACANFPEPRRAPTCSLDGALPLGAQIPAVHRLLGAPLKLEDCALQVSPSGYYLDTELSLEEQREMLEGFYEEISKGRKPTLILRTQLSVRVNAILEKLYSSSGPELRRSLFSLKQIFQEDKDLVPEFVHSEGLSCLIRVGAAADHNYQSYILRALGQLMLFVDGMLGVVAHSDTIQWLYTLCASLSRLVVKTALKLLLVFVEYSENNAPLFIRAVNSVASTTGAPPWANLVSILEEKNGADPELLVYTVTLINKTLAALPRQDSFYDVTDALEQQGMEALVQRHLGTAGTDVDLRTQLVLYENALKLEDGDIEEAPGAGGRRERRKPSSEE [chain 1 D290R]
~66	chain 1 MAGGEDRGDGEPVSVVTVRVQYLEDTDPFACANFPEPRRAPTCSLDGALPLGAQIPAVHRLLGAPLKLEDCALQVSPSGYYLDTELSLEEQREMLEGFYEEISKGRKPTLILRTQLSVRVNAILEKLYSSSGPELRRSLFSLKQIFQEDKDLVPEFVHSEGLSCLIRVGAAADHNYQSYILRALGQLMLFVDGMLGVVAHSDTIQWLYTLCASLSRLVVKTALKLLLVFVEYSENNAPLFIRAVNSVASTTGAPPWANLVSILEEKNGADPELLVYTVTLINKTLAALPDQRSFYDVTDALEQQGMEALVQRHLGTAGTDVDLRTQLVLYENALKLEDGDIEEAPGAGGRRERRKPSSEE [chain 1 D292R]
~66	chain 1 MAGGEDRGDGEPVSVVTVRVQYLEDTDPFACANFPEPRRAPTCSLDGALPLGAQIPAVHRLLGAPLKLEDCALQVSPSGYYLDTELSLEEQREMLEGFYEEISKGRKPTLILRTQLSVRVNAILEKLYSSSGPELRRSLFSLKQIFQEDKDLVPEFVHSEGLSCLIRVGAAADHNYQSYILRALGQLMLFVDGMLGVVAHSDTIQWLYTLCASLSRLVVKTALKLLLVFVEYSENNAPLFIRAVNSVASTTGAPPWANLVSILEEKNGADPELLVYTVTLINKTLAALPDQDSFYRVTDALEQQGMEALVQRHLGTAGTDVDLRTQLVLYENALKLEDGDIEEAPGAGGRRERRKPSSEE [chain 1 D296R]
~28	chain 1 MAGGEDRGDGEPVSVVTVRVQYLEDTDPFACANFPEPRRAPTCSLDGALPLGAQIPAVHRLLGAPLKLEDCALQVSPSGYYLDTELSLEEQREMLEGFYEEISKGRKPTLILRTQLSVRVNAILEKLYSSSGPELRRSLFSLKQIFQEDKDLVPEFVHSEGLSCLIRVGAAADHNYQSYILRALGQLMLFVDGMLGVVAHSDTIQWLYTLCASLSRLVVKTALKLLLVFVEYSENNAPLFIRAVNSVASTTGAPPWANLVSILEEKNGADPELLVYTVTLINKTLAALPDQDSFYDVTDALEQQGMEALVQRHLGTAGTDVDLRTQLVLYANALKLEDGDIEEAPGAGGRRERRKPSSEE [chain 1 E331A]

Variants of: B1
Assay: as above
Remark: another data set of the same source

percent of parent [%]	Variant
~18	chain 2 MPTVGPSTASPEEPPGSSLPSDTSDEIMDLLVQSVTKSSPRALAARERKRSRGNRKSLERTLKSG [chain 2 R59E]
~26	chain 2 MPTVGPSTASPEEPPGSSLPSDTSDEIMDLLVQSVTKSSPRALAAREDKRSRGNRKSLRRTLKSG [chain 2 R48D]
~6	chain 2 MPTVGPSTASPEEPPGSSLPSDTSDEIMDLLVQSVTKSSPRALAARERKRDRGNRKDLRRDLKSG [chain 2 S51D, chain 2 S57D, chain 2 T61D]
~16	chain 2 MPTVGPSTASPEEPPGSSLPSDTSDEIMDLLVQSVTKSSPRALAARERKRSRGNDKSLRRTLKSG [chain 2 R55D]
